Data from PMC5430726, “Grb2 carboxyl-terminal SH3 domain can bivalently associate with two ligands, in an SH3 dependent manner” (Scientific Reports, 2017).

Key:
[1] = target: T1, Grb2 C-terminal SH3 domain (SH3C), residues 155-217 (mouse, UniProt Q60631 155-217); test: ITC; SLP65 peptide titrated into the preformed Grb2 SH3C-Vav SH3N binary complex (gives Complex 1, Vav displaced); 20 mM sodium phosphate, 100 mM NaCl, pH 6.0, 25 °C; conditions: both partners purified
T1 construct: Uniformly 15N or 15N,13C labelled in the NMR titrations; monomer by glutaraldehyde cross-linking and SEC; also called Grb2 SH3C; Grb2 CSH3 domain; source: E. coli, purified (Ni2+-NTA chromatography); not shown: His tag, N-terminal, cleaved
T1 sequence (Q60631 155-217): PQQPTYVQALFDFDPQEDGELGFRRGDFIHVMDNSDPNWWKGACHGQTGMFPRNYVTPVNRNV

[2] = target: T1, Grb2 C-terminal SH3 domain (SH3C), …; test: ITC; free Grb2 SH3C in the cell (20 uM for the peptide, 40 uM for Vav) titrated with 280 uM SLP65 peptide or 600 uM Vav SH3N; 20 mM sodium phosphate, 100 mM NaCl, pH 6.0, 25 °C; one-site binding model; conditions: both partners purified

- Kd [2]: 3.55 ± 0.2 µM
- dH [2]: -6.67 ± 0.15 kcal/mol
- stoichiometry N [2]: 0.87 ± 0.02
B1: SLP65 peptide Ace-EKAPMVNRSTKPNSSS-NH2 (residues 201-216 of mouse SLP65) (peptide)
peptide: Ac-EKAPMVNRSTKPNSSS-NH2
notes: SLP65, mouse, residues 201-216; also called synthetic peptide; source: synthetic peptide
- Kd with Vav SH3N prebound to Grb2 SH3C (Vav displaced) [1]: 33.3 ± 1.1 µM
- dH with Vav SH3N prebound to Grb2 SH3C (Vav displaced) [1]: -5.9 ± 0.04 kcal/mol
